Reference: PMC11962113, “An unusual glycerol-3-phosphate dehydrogenase in Sulfolobus acidocaldarius elucidates the diversity of glycerol metabolism across Archaea” (Communications Biology, 2025)

B1: glycerol kinase Saci_2033 (enzyme, S. acidocaldarius DSM 639, UniProt Q4J7A3 1-497, looked up)
chain: MAEKYVIAIDEGTTSARAIVFDKELNILGIGQNEFTQYYPQPGYVEHSPEEIWQAQLLAINKALEKAKIDRNNILSIGITNQRETTVMWDTRTGKPIYNAIVWQDRRTAPITDYLKANYLRLIKDRTGLVPDPYFSASKIKWILDNIPNAREKAEKGEIKFGTIDTYLIWKLTNGKAHVTDYSNASRTMLFNIRKLEWDREILEILNIPEAILPDVKPSSEIYGYAEILNSSIPISGDAGDQQAALFGQIAFNQGDVKCTYGTGSFILLNTGSNLVSSNDLLTTIAWGVGKGITYALEGSIFITGAAVQWFRDGLRAIDVSDEIEPLAGSVPDNGGVYFVPAFTGLGAPYWDPYARGLIIGITRGTTKAHIARAILESMAYQTMDVLGIMQRDSGIKIDALKVDGGASKNDLLMQFQADILKMKVVRPKIMETTSMGVAMLAGLSVGYWNSMDELKQKWKIDQVFEPKMDDEYREKLYSGWKEAVRRALGWAKTIGG
notes: Glycerol kinase Saci_2033 of Sulfolobus acidocaldarius DSM 639, 497 amino acids, calculated mass 55.3 kDa; ORF amplified from genomic DNA; also called GK; GlpK
B2: glycerol-3-phosphate dehydrogenase Saci_2032 (His-tagged, recombinant) (enzyme, S. acidocaldarius DSM 639, UniProt Q4J7A2 1-431, looked up)
chain: MEIKTSVLVIGGGANGLFTALDLALRGIDVTLVERRDIGSGTSGRFHGLLHSGARYAVTDPESAKECIQENNIISKIAPHAIRDTGGLFLGITKEDLEFLDKFLSSLKKLGIEHKIVDNNQVLQEEPYVNKDLKIAIWVPDKVVYGYDLLSSIAVTGSLNKARIMTYNEVTEFIRDGNSIKGVKVFDKITNQMNLIKSDIIINTSGPWAFKIITMAGLEEIPILPTAGIMAVFGKKVNNAVLNRLRPPSDGDIIVPYQDTSILGTTATIIEDPDNFTISDEDVKMLIKEGSQLVPELSKTRVIRTYASVRPLMRTSEDGRKASRDFTILDHEREDGVSGLISIIGGKFTTSRLVGEKVGDLVSEKLGVRAKSKTKETKLISPSEIDFEKYLEKIGISKIFLKSVMERRGSLDEERYKTVLYLLLSLIARGR
notes: GlpA-like FAD-dependent glycerol-3-phosphate dehydrogenase Saci_2032 of Sulfolobus acidocaldarius DSM 639, calculated mass 47.6 kDa; ORF amplified from genomic DNA; also called G3PDH; GlpA-like; source: E. coli Rosetta (DE3), pET15b-saci_2032, purified (Nickel-IDA)
B3: glycerol kinase Saci_1117 (enzyme, S. acidocaldarius DSM 639, UniProt Q4J9R1 1-498, looked up)
chain: MSKYILAVDEGTTSARALVFDEDLNVISIAQTELTQYFPRPGYVEQNPEEIFEKQVSMIKKAVEKAKIEISQVSAIGIANQRETTIMWDSRSGRPVYNAVVWQDRRTSDITDWLKSNYLNLFKSKTGLIPDPYFSASKIKWILDNVPGVREKAERGEIKFGTVDTYLIWKLTNGKVHVTDYSNASRTMLFNIKKLEWDRDILEILEIPEAILPEVRSSSEVYGYAEPVGNIPISGDAGDQQAALFGQLGFSKGDVKCTYGTGSFILMNSGEEIYDSKDLLTTIAWKIGKDVKYALEGSIFTTGAAVQWVRDGLGLVSSSDEIESLASSVVDNGGVYFVPAFSGLGSPYWDPYARGLIIGISRGTSRGHIARAVLESIAYQVRDVIEVIKKDVGKEFVNVLKVDGGVSKNNLLMQFQADILGIRIVRPRVIETTSMGASMLAGLAVDYWSSLEELKSKWAVDREFIPSLQEDRRERLYKGWKEAVRRTIGWAREVETME
notes: Glycerol kinase Saci_1117 of Sulfolobus acidocaldarius DSM 639, 498 amino acids, calculated mass 55.6 kDa; ORF amplified from genomic DNA; The results call the protein C-terminally His-tagged; also called GK; GlpK homologue; source: S. acidocaldarius MW001, homologous overexpression (pSVAmalFX-saci_1117-SH10), purified (Strep-Tactin XT 4Flow column)
B4: glycerol-3-phosphate dehydrogenase Saci_1118 (His-tagged, recombinant) (enzyme, S. acidocaldarius DSM 639, UniProt Q4J9Q8 1-428, looked up)
chain: MKQNSSVIVIGGGATGLFTALDLSLRGINVTLVERGDIASGTSGKFHGLLHSGARYAVNDPESAKECKQENEVLSKIAPEFVRDTGGVFVGITEDDVNYSQRFLSALNSLGITNKVMDVEELIRREPFINKKSKIAIWVPDKVVYGYDLLATVALTASLNGAKILTYNEVKRVLREGNSVRRVEVKDNISGETKILNGDIIVNTAGPWAFRVIEMAGLGEIPLLPTAGIMVVMKEKLNSMVINRLRPPSDGDIIVPYGDSSIIGTTATIIPDPDNFEISDEDINMLIEEGAYMIPRLKEVKPERAYASVRPLIKNAEDGRGATRDFMIIDHEKVDSLDGLISVIGGKFTTSRLAGEKVSDMVSEKLGIREKSKTATIKLMSELDEKLLEKKRVPKVLVKMIRERKGSLDEDRYSTAMYILLSLLARGE
notes: GlpA-like FAD-dependent glycerol-3-phosphate dehydrogenase Saci_1118 of Sulfolobus acidocaldarius DSM 639, calculated mass 46.9 kDa; ORF amplified from genomic DNA; also called G3PDH; GlpA-like; source: E. coli Rosetta (DE3), pET15b-saci_1118, purified (Nickel-IDA)

Tests used:
[1] = target: T1, Saci_2032 (G3PDH) (Sulfolobus acidocaldarius, UniProt Q4J7A2); assay: absorption spectrum of bound FAD, […] nm, after SDS denaturation; format: binding; settings: two FAD per homodimer; non-covalent per family; reduced by G3P at 70 °C
T1 construct: full length, N-terminal His tag (pET15b), E. coli Rosetta (DE3); homodimer with 2 FAD; without CoxG

[2] = target: T2, Saci_1118 (G3PDH) (Sulfolobus acidocaldarius, UniProt Q4J9Q8); assay: as above; format: binding; settings: two FAD per homodimer; non-covalent per family; reduced by G3P at 70 °C
T2 construct: full length, N-terminal His tag (pET15b), E. coli Rosetta (DE3); homodimer with 2 FAD; without CoxG

[3] = substrate: Nc1ncnc2c1ncn2[C@@H]1O[C@H](COP(=O)(O)OP(=O)(O)OP(=O)(O)O)[C@@H](O)[C@H]1O; assay: purified protein; format: biochemical, Sulfolobus acidocaldarius; settings: 2 mM glycerol
[4] = substrate: OCC(O)CO; assay: purified protein; format: biochemical, Sulfolobus acidocaldarius
[5] = target: the molecule itself; assay: SEC; Superose 6 Increase 10/300 GL, 50 mM TRIS-HCl pH 7.5, 250 mM NaCl; GKs 50 µg in 200 µL, G3PDHs 19 mg Saci_2032 or 6 mg Saci_1118 in 500 µL; calibrated with LMW and HMW gel filtration kits; native mass compared with subunit mass
[6] = substrate: COC1=C(OC)C(=O)C(CC=C(C)C)=C(C)C1=O; assay: purified protein; format: biochemical, Sulfolobus acidocaldarius; settings: 0.4 mM G3P, no DCPIP, 50 mM HEPES-KOH pH 6.5, 100 mM KCl, 70 °C
[7] = substrate: O=P(O)(O)OC[C@H](O)CO; assay: purified protein; format: biochemical, Sulfolobus acidocaldarius; settings: 0.06 mM DCPIP as electron acceptor, 50 mM HEPES-KOH pH 6.5, 100 mM KCl, 70 °C
[8] = 5 mM ATP, 5 mM MgCl2, 0.1 M MOPS-KOH pH 6.5, 50 °C
[9] = 1 mM ATP, 1 mM MgCl2, 0.1 M TRIS-HCl pH 7, 50 °C

Molecule	stoichiometry N [5]	Km [6] [µM]	Vmax [6] [µmol/min/mg]	kcat/Km [6] [M⁻¹ s⁻¹]	Km [7] [µM]	Vmax [7] [µmol/min/mg]	kcat/Km [7] [M⁻¹ s⁻¹]	further results
Cc1cc2nc3c(=O)[nH]c(=O)nc-3n(C[C@H](O)[C@H](O)[C@H](O)COP(=O)(O)OP(=O)(O)OC[C@H]3O[C@@H](n4cnc5c(N)ncnc54)[C@H](O)[C@@H]3O)c2cc1C [FAD]								absorption spectrum of bound FAD, 450 nm, after SDS denaturation [1]: a FAD content of two per homodimer was determined for both enzymes; absorption spectrum of bound FAD, 450 nm, after SDS denaturation [2]: a FAD content of two per homodimer was determined for both enzymes
B1	2							Km ([3]; 0.1 M MOPS-KOH pH 6.5, 50 °C): 174 ± 19 µM; Vmax ([3]; 0.1 M MOPS-KOH pH 6.5, 50 °C): 91 µmol/min/mg; kcat/Km ([3]; 0.1 M MOPS-KOH pH 6.5, 50 °C): 485000 ± 57100 M⁻¹ s⁻¹; Km [4, 8]: 24 ± 4 µM; Vmax [4, 8]: 88.2 µmol/min/mg; kcat/Km [4, 8]: 1.31e+07 ± 2.2e+06 M⁻¹ s⁻¹
B2	2	179 ± 75	21.1	128000 ± 58900	55 ± 9	44.5	642000 ± 111000	
B3	2							Km ([3]; 0.1 M TRIS-HCl pH 7, 50 °C): 205 ± 24 µM; Vmax ([3]; 0.1 M TRIS-HCl pH 7, 50 °C): 50.8 µmol/min/mg; kcat/Km ([3]; 0.1 M TRIS-HCl pH 7, 50 °C): 229000 ± 28400 M⁻¹ s⁻¹; Km [4, 9]: 24 ± 1 µM; Vmax [4, 9]: 45.7 µmol/min/mg; kcat/Km [4, 9]: 6.4e+06 ± 507000 M⁻¹ s⁻¹
B4	2	86 ± 19	18.7	170000 ± 39700	19 ± 3	19.6	808000 ± 131000	
